From US7718385B2, “Bioactivation of alkylating agents for cancer treatment” (priority 2003, dated 2010)

Substrate: CC1=C(CO)C2=C(C)C3(CC3)[C@@](C)(O)C(=O)C2=C1
Test: purified protein, by the assay type
Settings: other: formation of Product 8; 37.0 °C

B1: recombinant rat AOR (Rattus norvegicus; Q160G/Q263G/Q264G/Q276G) (protein)
chain: MVQAKTWTLKKHFEGFPTDSNFELRTTELPPLNNGEVLLEALFLSVDPYMRVAAKKLKEGDSMMGEQVARVVESKNSAFPTGTIVVALLGWTSHSISDGNGLRKLPAEWPDKLPLSLALGTVGMPGLTAYFGLLDICGLKGGETVLVNAAAGAVGSVVGGIAKLKGCKVVGTAGSDEKVAYLKKLGFDVAFNYKTVKSLEEALRTASPDGYDCYFDNVGGEFSNTVILQMKTFGRIAICGAISQYNRTGPCPPGPSPEVIIYGGLRMEGFIVTRWGGEVRQKALTDLMNWVSEGKIRYHEYITEGFEKMPAAFMGMLKGDNLGKTIVKA
  Km: 145 µM
  Vmax: 0.275 µmol/min/mg
